Data from paper PMC11472163, “Crystal structure and nucleic acid binding mode of CPV NSP9: implications for viroplasm in Reovirales”.

Experiments:
[1] = biological target: BmCPV1 NSP9^ΔC (1–286 amino acid residues, lacking residues 287–320), expressed in E. coli (Bombyx mori cypovirus 1 (BmCPV1)); test: AUC
[2] = biological target: BmCPV1 NSP9^ΔC (1–286 amino acid residues, lacking residues 287–320), expressed in E. coli (Bombyx mori cypovirus 1 (BmCPV1)); test: SEC; […]; 10 mM HEPES pH 7.5, 100 mM NaCl; […]
NSP9ΔC [3] = biological target: T1, NSP9ΔC (Bombyx mori cypovirus 1 (BmCPV1), UniProt O72505 1-286); test: EMSA; 1:1 NSP9ΔC dimer:ssDNA; […]; SEC: 10 mM HEPES pH 7.5, 100 mM NaCl; details: protein: recombinant; chain copies: 2; label: 5' 6-FAM (EMSA)
NSP9ΔC [4] = biological target: T1, NSP9ΔC; test: EMSA; no significant difference from DNA; […]; SEC: 10 mM HEPES pH 7.5, 100 mM NaCl; details: protein: recombinant; chain copies: 2; label: 5' 6-FAM
NSP9ΔC [5] = biological target: T1, NSP9ΔC; test: EMSA; two sequential bands; 2:1 dimer:NA; […]; SEC: 10 mM HEPES pH 7.5, 100 mM NaCl; details: protein: recombinant; chain copies: 2; label: 5' 6-FAM

BmCPV1 NSP9^ΔC (1–286 amino acid residues, lacking residues 287–320), expressed in E. coli (domain or fragment)
stoichiometry N [1]: 2
stoichiometry N [2]: 2

B1: 15 nt ssDNA (ssDNA)
DNA: AGTAAGCTGTTAGCC
binding result (NSP9ΔC [3]): binds

B2: 15 nt ssRNA (ssRNA)
RNA: AGUAAGCUGUUAGCC
binding result (NSP9ΔC [4]): binds

B3: 30 nt ssDNA (ssDNA)
DNA: AGTAAATCCCAGGCGCTCGGGTCGTTAGCC
binding result (NSP9ΔC [5]): binds

B4: 30 nt ssRNA (ssRNA)
RNA: AGUAAAUCCCAGGCGCUCGGGUCGUUAGCC
binding result (NSP9ΔC [5]): binds
